B1: HDV Ribozyme (parent)
chain: GGCCGGCAUGGUCCCAGCCUCCUCGCUGGCGCCGGCUGGGCAACAUUCCGAGGGGACCGUCCCCUCGGUAAUGGCGAAUGGGACCCA

In this data set the parent is B1. Description: self-cleavage, relative activity (ratio to wild type); higher = more cleavage; co-transcriptional.
Take U23G A77G: the self-cleavage was determined as 0.554.
Regarding G35A G54C, the self-cleavage is 0.69.
G2C G40A: the self-cleavage turned out to be 0.0773.
As for G38C A83U, the self-cleavage came out at 0.0361.
With U27C G38C, the self-cleavage came out at 0.123.
As to U9A C18G, the self-cleavage was found to be 0.369.
As for G11U A16G, the self-cleavage was determined as 0.309.
Regarding A43G U46G, the self-cleavage turned out to be 0.499.
For C21U C86A the value was 0.505.
For G31A A83C, the self-cleavage came out at 0.0811.
Next, G17A G50A: 0.76; C15A G31C: 0; U69A C75G: 0.138.
For the variant C36G G68C, the self-cleavage is 0.17.
For the variant C15A C63U, the self-cleavage came out at 0.649.
On to G59U U79A, for which the self-cleavage was found to be 0.929.
Next, A45G C63G: 0.739; U9C C75G: 0.
As for C41A U60A, the self-cleavage was 0.979.
Turning to G25C U65G, the self-cleavage was 0.0875.
A71U C75A: the self-cleavage is 0.0739.
As to A56G C86G, the self-cleavage is 1.17.
Take C30A G38U: the self-cleavage stood at 0.107.
For G40U A77C, the self-cleavage was found to be 0.145.
C44A C66U: the self-cleavage came out at 0.809.
For G29U C30G the value was 0.0923; for C26G C36U, 0.529; for U60C A77G, 0.831.
Consider C32U C85U, for which the self-cleavage came out at 0.725.
For U37C G76C, the self-cleavage is 1.19.
For the variant C61G G76U, the self-cleavage turned out to be 1.16.
Consider G40U C41A, for which the self-cleavage was 0.843.
Turning to A8C A77U, the self-cleavage amounted to 0.356.
Take U9C C14G: the self-cleavage amounted to 0.208.
For U9C G29A the value was 0.222.
As to G40C A43U, the self-cleavage turned out to be 0.0639.
Regarding G50A A71C, the self-cleavage amounted to 0.633.
Take U12C U69A: the self-cleavage was 0.166.
For C62A A70C, the self-cleavage was determined as 0.886.
With G35U C66A, the self-cleavage turned out to be 0.332.
For G39U G68U, the self-cleavage is 0.56.
With A8C G59U, the self-cleavage worked out at 0.804.
On to U9G C13A, for which the self-cleavage amounted to 0.831.
A45G C66G: the self-cleavage came out at 0.811.
For U12A G29U the value was 0.113.
In the case of U46G G68A, the self-cleavage worked out at 0.608.
For G54C G59C the value was 1.21; for C22G C66U, 0.0308; for G40C G59C, 0.229.
As to C32U G67A, the self-cleavage is 0.857.
In the case of G2C C84U, the self-cleavage was 0.0181.
G11A C22A: the self-cleavage stood at 0.0443.
For G1A A70G, the self-cleavage is 0.214.
As to C7G G67C, the self-cleavage stood at 0.0573.
For C21U U60G the value was 0.122; for A42G G68C, 0.271.
For G2A G6A the value was 0.0563.
In the case of C61U G80U, the self-cleavage turned out to be 0.217.
U37G C75U: the self-cleavage stood at 0.0594.
As to A42U G81A, the self-cleavage was 0.0378.
For G39U G52C the value was 0.831; for G10A G50A, 0.657; for G5A C30G, 0.0426.
Take U46A A83U: the self-cleavage was 0.277.
On to G17A C62U, for which the self-cleavage came out at 0.554.
Consider C30A C61U, for which the self-cleavage is 0.601.
On to C19U G38A, for which the self-cleavage stood at 0.0875.
As to A8G C57A, the self-cleavage is 0.779.
As for G28C C62G, the self-cleavage was 0.0536.
As for G28C C62A, the self-cleavage came out at 0.0346.
Next, U9A G81A: 0.396; C48G A77U: 0.748; A45G U60G: 1.31.
Consider C21A U23A, for which the self-cleavage worked out at 0.0369.
Regarding C3U C57A, the self-cleavage was 0.9.
As for C13A C19A, the self-cleavage was 0.0302.
On to C30A A87U, for which the self-cleavage turned out to be 0.537.
As for G10A G29U, the self-cleavage amounted to 0.0275.
For G6A G67U the value was 0.692; for G73C C86G, 0.415.
For the variant C18A C64A, the self-cleavage stood at 0.136.
For U69G U79G the value was 0.895; for C75A A87G, 0.251; for C3A C48G, 0.795.
For the variant G1U A42U, the self-cleavage amounted to 0.332.
Next, G11C A56G: 0.172; C7G A56U: 0.475.
For the variant C62G U79C, the self-cleavage came to 0.529.
Take U65C A83C: the self-cleavage turned out to be 0.867.
Take G11U U23C: the self-cleavage is 0.554.
For G76C G82A, the self-cleavage was found to be 0.432.
With C21A C48A, the self-cleavage is 0.157.
Next, G25A G59U: 0.264.
As to C21G G74U, the self-cleavage stood at 0.0554.
Turning to U27C G81A, the self-cleavage worked out at 0.374.
Regarding C7G C33A, the self-cleavage stood at 0.196.
C26A A78G: the self-cleavage came to 0.831.
Consider U27G C63G, for which the self-cleavage is 0.532.
For G2U C49A, the self-cleavage was 0.118.
For C19A U23G the value was 0.0923.
Consider C49G A78G, for which the self-cleavage was determined as 0.266.
With A16U U60G, the self-cleavage stood at 1.15.
As for C3U G25A, the self-cleavage was determined as 0.138.
For the variant C19G U69G, the self-cleavage came to 0.102.
Next, G25A A87G: 0.163; C63A A70G: 0.767.
With A16C G67U, the self-cleavage was 1.17.
As for G74U G81U, the self-cleavage was 0.156.
With U69C G81A, the self-cleavage was found to be 0.323.
Regarding C30U C62A, the self-cleavage amounted to 0.562.
For U37A C86U the value was 0.35.
Consider U37A C86A, for which the self-cleavage was 0.256.
For the variant C22U G68A, the self-cleavage was 0.631.
Turning to C44A C48A, the self-cleavage was 0.88.
Regarding C7A C32G, the self-cleavage was 0.
For C26A G39U, the self-cleavage stood at 0.935.
For G34A C86A, the self-cleavage amounted to 0.0683.
Consider A71G U72A, for which the self-cleavage was determined as 0.573.
Take G6A U9A: the self-cleavage was found to be 0.942.
For the variant G34U U79G, the self-cleavage amounted to 0.0978.
G29A G52U: the self-cleavage is 0.153.
Regarding C24A C36G, the self-cleavage came out at 0.0678.
With G6U A42U, the self-cleavage was 0.095.
Turning to C64U A78U, the self-cleavage was found to be 0.297.
Next, A8U C64G: 0.856; U9G G11A: 0.346.
As to G5U A78U, the self-cleavage was 0.0723.
For G50A A87G the value was 1.01.
With C14G G81A, the self-cleavage turned out to be 0.957.
Take C32A U65G: the self-cleavage was 0.122.
As to U9C C15G, the self-cleavage came out at 0.104.
For the variant C44U G54U, the self-cleavage worked out at 0.799.
Regarding G59U A87U, the self-cleavage was 1.09.
Consider G11A C75U, for which the self-cleavage was 0.144.
With U46A G68C, the self-cleavage is 0.633.
Turning to G6C G55A, the self-cleavage stood at 0.16.
On to C19A U27C, for which the self-cleavage was found to be 0.0536.
Turning to A42C A83G, the self-cleavage stood at 0.129.
Consider C13A C30U, for which the self-cleavage was determined as 0.181.
As for C19A G39C, the self-cleavage was 0.
Next, A8U A42C: 0.0692; G25U G55A: 0.201.
Take C4G C26U: the self-cleavage came to 0.684.
Regarding G1A A51U, the self-cleavage is 0.
For C3G U9C, the self-cleavage amounted to 0.554.
As to C49U C62A, the self-cleavage was 0.652.
As for U23C C85G, the self-cleavage is 0.869.
For the variant G1A G55U, the self-cleavage turned out to be 0.309.
Consider C24U C58U, for which the self-cleavage stood at 0.772.
On to G29U A43G, for which the self-cleavage was 0.131.
Next, U9G U60G: 0.875.
G34U C64U: the self-cleavage came to 0.246.
For G50A A78C the value was 0.138.
For G5C C58A the value was 0.162; for A8U C66U, 0.906; for G38A C58A, 0.115.
On to G68C C84U, for which the self-cleavage amounted to 0.796.
As to A16U U72C, the self-cleavage stood at 0.569.
Next, C30G U69G: 0.
For C14A C30U the value was 0.143; for U46G C57G, 0.804.
As to C21G A70C, the self-cleavage came out at 0.225.
Consider G1A G80A, for which the self-cleavage was 0.0455.
Regarding C4U U37C, the self-cleavage stood at 0.772.
Take C41G A56C: the self-cleavage worked out at 0.942.
Turning to G53C U65C, the self-cleavage is 0.772.
Next, A43U C62A: 0.499.

These data come from the RNAGym collection of RNA variant scans (doi:10.7554/elife.80360).
